Source: publication PMC1925066, “Optical biosensor differentiates signaling of endogenous PAR1 and PAR2 in A431 cells” (BMC Cell Biology, 2007)

Columns and labels:
A431 cells = test system: A431 cells; parameters: method as in PMID 16766609; conditions: doses greater than ~1000 nM; cited from earlier work
[1] = test system: endogenous PAR1 and PAR2 in A431 cells; assay: Fluo-3 Ca2+ mobilization (Ca2+ flux) assay in quiescent A431 cells; type: cell-based, human
Procedure: (§1) Human epidermoid carcinoma A431 cells ([…]) were grown in Dulbecco's modified Eagle's medium (DMEM) supplemented with 10% fetal bovine serum (FBS), 4.5 g/liter glucose, 2 mM glutamine, and antibiotics. ~5 × 10^4 cells at passage 3 to 8 suspended in 200 μl the DMEM medium containing 10% FBS were placed in each well of a 96well microplate, and were cultured at 37°C under air/5% CO2 for ~2 days, followed by ~20 hr starvation through continuously culturing in the serum-free DMEM.
Cells were grown in Costar™ 96well clear cell culture microplates. After starvation, the cells were washed with 1× HBSS (1× regular Hank's balanced salt solution, 20 mM HEPES buffer, pH 7.0) in the presence of 2.5 mM probenicid, and labeled in the same buffer containing 4 μM Fluo-3 for 1 hour at room temperature. The cells were then washed twice with buffer, maintained with 100 μl 1× HBSS containing 2.5 mM probenicid. The assay was initiated by transferring 50 μl PAR agonist solution to the cell plate, and calcium signal was recorded over 6 minutes with a 6 sec interval using HTS7000 BioAssay Reader (PerkinElmer Life Science, Boston, MA). The fluorescent intensity before stimulation was recorded and used as a baseline. The percentage increase in fluorescence intensity after stimulation, relative to the baseline fluorescence, was analyzed and used directly as a measure for the increase of intracellular Ca^2+ level induced by PAR agonists.
(§2) Unless specifically mentioned, three replicates were carried out for each measurement or each compound. The standard deviation was derived from these measurements (n = 3). […] All dose-dependent responses were analyzed using non-linear regression method with the Prism software (Graph Pad).

[2] = test system: endogenous PAR1 and PAR2 in A431 cells; assay: MRCAT resonant waveguide grating biosensor DMR assay in quiescent A431 cells; type: cell-based, human; conditions: for EC50: A431 cells
Procedure: as §1
Corning® Epic™ angular interrogation system with transverse magnetic or p-polarized TM0 mode was used for all studies. The detailed instrumental setup and assay protocols had been previously described. Briefly, all compound solutions were prepared using 1 × HBSS containing minimal amount of dimethyl sulfoxide, while the starved cells were washed and maintained with 100 μl the serum-free DMEM. The cells were then treated with 50 μl 1 × HBSS buffered solution in the absence and presence of a compound, followed by stimulation with ligand solutions. The cellular responses were monitored in real time throughout the assays.
as §2

B1: Trypsin: serine protease, PAR2 agonist, purchased from Sigma (protein, UniProt P00760 24-246, looked up)
Serine protease 1: IVGGYTCGANTVPYQVSLNSGYHFCGGSLINSQWVVSAAHCYKSGIQVRLGEDNINVVEGNEQFISASKSIVHPSYNSNTLNNDIMLIKLKSAASLNSRVASISLPTSCASAGTQCLISGWGNTKSSGTSYPDVLKCLKAPILSDSSCKSAYPGQITSNMFCAGYLEGGKDSCQGDSGGPVVCSGKLQGIVSWGSGCAQKNKPGVYTKVCNYVSWIKQTIASN
cell detachment (A431 cells): significant cell detachment
maximal [Ca^2+]i elevation ([1]; A431 cells, SFLLR-amide at 80 μM): 100 ± 6%
EC50 ([1]; A431 cells, read-out: EC50 (n = 3) Ca^2+ flux assay): 45.7 ± 5.8 nM
responsiveness (Ca^2+ mobilization) after pre-stimulation with thrombin ([1]; thrombin 40 unit/ml first, separated by 6 min): only partially
Ca^2+ mobilization response after pre-stimulation with trypsin ([1]; trypsin 200 nM first, repeated stimulation separated by 6 min): completely blocked
EC50 ([2]; amplitude of N-DMR event, read-out: EC50 (n = 3) N-DMR): 102 ± 21.9 nM
EC50 ([2]; amplitude of P-DMR event, read-out: EC50 (n = 3) P-DMR): 98 ± 27.8 nM
desensitization of trypsin-treated cells (DMR signal) ([2]; trypsin 200 nM first, repeated stimulation separated by ~1 hr): completely desensitized
